Data on one molecule can be found in patent publication US20150018409A1, “CHIMERIC POLYPEPTIDES AND THEIR USE” (ADRIACELL S.P.A., priority 2003, published 2015).

For assay [1], the system named is neuroblastoma cells G1-LIN. Kind of assay: Apoptosis by FACS analysis of DNA content (below 2N). It counts as cell-based. Conditions: 30 hours. As to the method:
FACS analysis of the DNA content stained with propidium J^− of the neuroblastoma cells G1-LIN after […] treatment (10 nM, panel C; 100 nM panel B). The treatment of the samples was done for 30 hours. As a control samples treated with SC34 were used (100 nM, panel D) or not treated (panel A). At the bottom of each panel the representative percentage of the cell cycle phase distributions obtained are indicated (G1/S/G2-M). (A) indicates apoptotic cells.
On the technique in general: A flow cytometer gives signals particle by particle.

The test system of assay [2] is neuroblasoma cell lines (IMR32, LAN5, GI-LIN) and primary neuroblastoma cell isolates. Conditions: upon treatment with SCPVUTAT
As for the experimental part:
For the analysis the DNA content was assayed with FACS after staining of the cells with propidium J^−.

Assay [3] relates to NHEJ mutated cell lines (V3, xrss5, XR-1, HIS P1.13-11). Kind of assay: Colony formation assay of NHEJ mutated cell lines. It counts as cell-based, rodent. As to the method: (§1) Clonogenic assay of CHO cells that were mutated for proteins involved in the NHEJ repair-pathway treated with […]. The cell lines used are AA8 (parental line), V3 (DNA-PCCS^(−/−)), xrss5 (KU80^(−/−)) and XR-1 (XRCC4^(−/−)), HIS P1.13-11 (KU70^(−/−)) and the corresponding parental cell line CHO-K1. Various dilutions of the CHO cells containing the NHEJ mutations as indicated were treated for 24 hours with […] (25 nM, grey bars; 100 nM, black bars) or not treated (white bars); the cells were washed and then grown for 7-10 days, stained with GIEMSA and colonies were counted.
(§2) These cell lines were analysed in the nuclease activity assays with […] in vivo and compared to the parental cell lines as indicated. […] Seven to ten days after addition, cell growth was analysed by staining with GIEMSA-blue and quantification of diverse cell-concentrations. […] In analogy, cell growth was quantified after a single treatment with […] for 12 hours (10 nM, grey bars; 75 nM, black bars; not treated, white bars). […] The multiwell-microtiter-plates (for an example see FIG. 13A) were scanned using the VersaDOC® (BioRad) imaging system and growth was automatically quantified with the software package Quantify One® for the analysis of the microtiter-plates (microtiter-plates scanning software).

Assay [4] has as its system HCT116 cells (hMLH1 mutated). Kind of assay: Clonogenic assay of mismatch repair defective cells. It counts as cell-based, human. Conditions: similar assays.
Experimental: These cells were plated into multiwell-microtiter-plates at different concentrations and treated with [sequence] as indicated and stained with GIEMSA-blu. The multiwell-microtiter-plates (for an example see FIG. 13A) were scanned using the VersaDOC® (BioRad) imaging system and growth was automatically quantified with the software package Quantify One® for the analysis of the microtiter-plates (microtiter-plates scanning software).
The subject of a further assay is XR-1 (XRCC4−/−) cells. The settings on record: single addition of SCPVUTAT
As for the experimental part:
as §1, §2

The subject of assay [5] is U2OS osteosarcoma cells and IMR90 primary fibroblasts. Briefly: Protein transduction of the chimeric proteins (immunoblot and immunofluorescence with PvuII antibody). It counts as cell-based, human. As for the experimental part:
For a comparison aliquots of the supernatants of the cell culture taken before extract preparation were included in the analysis (upper panel, SUPERNATANT).
In addition DNA costaining was obtained with propidium J after RNAse A digest (red, upper panel).
The transduction capacity of the chimeric proteins was assayed in U2OS osteosarcoma cells and in the IMR90 primary fibroblasts cells. The cells were grown in DMEM containing 10% FCS and treated with the proteins of the invention in the same medium, in general in the presence of antibiotics. After 10 minutes of incubation of the cells with increasing quantities of the fusion protein […] (1, 10, 50, 100, 200 nM) and with the protein SCPVU (single chain PvuII without TAT) and SC34 as a control (prepared as described for […] except that the enzyme PvuII contains a mutant in position 34) cell extracts were prepared, separated on SDS-PAGE and assayed by immuno-blot analysis with a monospecific antibody to PvuII. Further, uptake was assayed after 30 min of incubation by immuno-fluorescence analysis using PvuII specific antibodies and nuclear costaining with propidium iodide.

In assay [6] the test system is DSBs in human or rodent cell lines (U2OS, HEK-293, MCF-7, HCT116, WI83, IMR90, MEF). Briefly: TUNEL assay for DSB induction in vivo. It counts as cell-based. As for the experimental part: […] was assayed with terminal deoxynucleotidyl transferase (TdT) dUTP-FITC, in a TUNEL reaction (In Situ Cell Death Detection Kit, Roche Diagnostic, Mannheim Germany) which marks DSBs in vivo. The assay was done after fixation of the cells in 4% paraformaldehyde in PBS, 0.1% Triton. After the TUNEL reaction the cells are counter-stained with propidium J. The use of derivatives impaired in the nuclease activity like the construct SC34 as a negative control, allows to estimate background activities. […] This aspect makes the system described in the invention by far more efficient as compared to endonucleases induced from transcriptional units or compared to any of the other type of protein transfection like electroporation, or precipitations with calcium phosphate or libid-derivatives i.e. lipofectin.

The test system of assay [7] is AT-5 cells (mutated for ATM). Briefly: FACS analysis of DNA content / cell cycle distribution. It counts as cell-based. The settings on record: incubation for 36 hours (25 nM, 100 nM). As to the method: FIG. 8. Induction of Cell Cycle Block and Clonogenic Activity by […] of Cells Mutated for ATM (AT-5) in Comparison to Non Mutated Cells (MRC-5). • A) Distribution of DNA content distribution during the cell cycle detected by FACS analysis of AT-5 cells after 36 hours of […] treatment (25 nM, 100 nM), or with adriamycin (0.02 μg/ml; ADRIAMYCIN), or with SC34 (100 nM), and as control from non treated cells. The histograms represent DNA content relative to the cell-numbers; the panel on the right indicates the percentage of the corresponding distributions of the various cell cycle phases as calculated with the MODFIT™ program-package. • B) Colony forming assay with cell lines mutated for ATM and induced for DNA damage by […].
The cell cycle response to DSB's induced by […] treatment were analysed in p53 positive or negative cells. […] Incubation for 36 hours of the cell lines mutated for ATM (AT-5) with […] results in a transient retardation of the cell cycle, as was determined by a DNA content FACS analysis. […] A single addition of […] for 60 minutes to the AT-5 cells was sufficient to induce cell cycle stop after 24 hours (FIG. 8A) and finally leads to cell death, obtained from not correctly ligated DNA, and consequently, the clonogenic activity after a single treatment with […] for 60 minutes was below 0.02% for AT-5 cells. […]

B1: SCPVUTAT: single chain PvuII endonuclease (aa 1-157, GSGG linker, aa 2-157) fused to HIV Tat peptide and six histidine tag; SEQ ID NO:2 (protein, listed as Proteus vulgaris)
chain: MSHPDLNKLLELWPHIQEYQDLALKHGINDIFQDNGGKLLQVLLITGLTVLPGREGNDAVDNAGQEYELKSINIDLTKGFSTHHHMNPVIIAKYRQVPWIFAIYRGIAIEAIYRLEPKDLEFYYDKWERKWYSDGHKDINNPKIPVKYVMEHGTKIYGSGGSHPDLNKLLELWPHIQEYQDLALKHGINDIFQDNGGKLLQVLLITGLTVLPGREGNDAVDNAGQEYELKSINIDLTKGFSTHHHMNPVIIAKYRQVPWIFAIYRGIAIEAIYRLEPKDLEFYYDKWERKWYSDGHKDINNPKIPVKYVMEHGTKIYGSYGRKKRRQRRRGGSHHHHHH
As for B1, the figures for the apoptotic cells in assay [1] (10 nM) and in assay [1] (100 nM) were 18% and “more than 29%”, respectively. Moreover, the induction of apoptosis entry in assay [2] was “significant amount of apoptosis was induced”. Besides, the “colony formation, cells with mutants in the DNA-PK incl. catalytic subunit” value in assay [3] (single addition of SCPVUTAT) was “strong reduction in the colony formation assay”. The colony formation activity entry in assay [3] (single treatment, all NHEJ mutated cell lines analysed) is given as “strongly reduce colony formation activity”. Moreover, the entries for the “sensitivity in clonogenic assay” value (in assay [4]; in the assay on XR-1 (XRCC4−/−) cells) were “do not show any increase in sensibility” and “hypersensitive to blunt end DSB's”, respectively. For the same molecule, the “import / enrichment in the cells” value in assay [5] (1-200 nM SCPVUTAT, controls 200 nM, 10 min incubation, immunoblot with PvuII antibody) is “enriched in the cells and in particular in the nucleus”. The “uptake, share of the cells analysed” value in assay [5] (protein added to culture medium (DMEM, 10% FCS), immunoblot after 10 min, immunofluorescence after 30 min) is given as around 100%. In addition, in assay [6] (10 minutes after treatment, all cell types tested), the TUNEL positive cells was 90-100%. Besides, the TUNEL activity result in assay [6] (few minutes of treatment, concentration in culture supernatant as low as 10 nM) is listed as “significant TUNEL activity in most of the cells”. In addition, in assay [7], the “change of cell cycle distribution (DNA content)” value is “strong increase in 4N G2 DNA content”.
